In publication PMC6234289 one finds response data, which are given here for 1 substance.

In the test the target is ribosome (40S ribosomal subunit) of RACK1-downregulated HeLa cells. Briefly: in vitro ribosome interaction assay (iRIA). Particulars: parent: est. 1.1; read off a plot.

As to “MBP-RACK1, wild type (from UniProt P63244) R36D; K38E”, the response was 0.47 Abs450.
